Results reported in patent US20220332795A1 (ARO BIOTHERAPEUTICS, published 2022).
Positions count from the first letter of the chain named.

B1: SEQ ID NO 39 (designed binder, not shown: small tags and cut ends)
chain: MLPAPKNLVVSRVTEDSARLSWTAPDAAFDSFPIPYTEPPDPGEAIVLTVPGSERSYDLTGLKPGTEYLVTILGVKGGSMSVPLSAIFTT
notes: FN3 domain, hit of the apical domain panning
B2: SEQ ID NO 38 (designed binder, not shown: small tags and cut ends)
chain: MLPAPKNLVVSRVTEDSARLSWTAPDAAFDSFPILYLEHTVRSEAIVLTVPGSERSYDLTDLKPGTEYCVPIDGVKGGLRSRPLSAIFTT
notes: as for B1
B3: SEQ ID NO 12 (designed binder, not shown: small tags and cut ends)
chain: MLPAPKNLVVSRVTEDSARLSWTAPDAAFDSFFIPYAEPSPTGEAIVLTVPGSERSYDLTGLKPGTEYSVLIHGVKGGHLSDPLSAISTT
notes: as for B1
B4: SEQ ID NO 64 (designed binder, not shown: small tags and cut ends)
chain: B3 chain with F33Y, P35V, S40I, T42N, H79R, L80N, S88F
notes: as for B1
B5: SEQ ID NO 42 (designed binder, not shown: small tags and cut ends)
chain: B3 chain with F33L, P39T, T42S, H79D, L80Y, D82E, S88F
notes: as for B1
B6: SEQ ID NO 49 (designed binder, not shown: small tags and cut ends)
chain: B3 chain with F33P, P35A, S40R, T42D, H79D, L80W, D82L, S88F
notes: as for B1
B7: SEQ ID NO 82 (designed binder, not shown: small tags and cut ends)
chain: B3 chain with F33L, P39T, T42S, H79D, L80Y, D82S, S88F
notes: as for B1
B8: SEQ ID NO 83 (designed binder, not shown: small tags and cut ends)
chain: B3 chain with F33P, P35A, S40R, T42D, H79L, D82S
notes: as for B1
B9: SEQ ID NO 99 (designed binder, not shown: small tags and cut ends)
chain: B3 chain with A86V, S88F
notes: as for B1
B10: SEQ ID NO 46 (designed binder, not shown: small tags and cut ends)
chain: B3 chain with F33I, P39V, S40R, T42D, H79K, D82L, S88F
notes: as for B1
B11: SEQ ID NO 57 (designed binder, not shown: small tags and cut ends)
chain: B3 chain with F33A, P39L, P41R, T42N, S69T, H79C, S88F
notes: as for B1
B12: SEQ ID NO 77 (designed binder, not shown: small tags and cut ends)
chain: B3 chain with F33P, P35A, S40R, T42D, H79L, D82S, S88F
notes: as for B1
B13: SEQ ID NO 65 (designed binder, not shown: small tags and cut ends)
chain: B3 chain with E15K, F33P, P35A, S40R, T42D, H79L, D82S, S88F
notes: as for B1
B14: SEQ ID NO 44 (designed binder, not shown: small tags and cut ends)
chain: B3 chain with S88V
notes: as for B1
B15: SEQ ID NO 68 (designed binder, not shown: small tags and cut ends)
chain: B3 chain with F33I, P39V, S40R, T42D
notes: as for B1
B16: SEQ ID NO 37 (designed binder, not shown: small tags and cut ends)
chain: MLPAPKNLVVSRVTEDSARLSWTTPDAAFDSFPIYYWEVTITGEAIYLSVPGSERSYDLTGLKPGTEYPVDIPGVKGGAASPPLSAIFTT
notes: as for B1
B17: SEQ ID NO 50 (designed binder, not shown: small tags and cut ends)
chain: MSLPAPKNLVVSRVTEDSARLSWTAPDAAFDSFTIHYREFQLSGEAIVLTVPGSERSYDLTGLKPGTEYDVPIEGVKGGPGSRPLSAIFTT
notes: as for B1
B18: SEQ ID NO 19 (designed binder, not shown: small tags and cut ends)
chain: MLPAPKNLVVSRVTEDSARLSWTAPDAAFDSFAITYTEAALCGEAIVLTVPGSERSYDLTGLKPGTEYPVPINGVKGGGTSGPLSAIFTT
notes: as for B1
B19: SEQ ID NO 18 (designed binder, not shown: small tags and cut ends)
chain: B18 chain with A33N, T35M, T37H, A39I, A40I, L41Y, C42V, N73E
notes: as for B1
B20: SEQ ID NO 34 (designed binder, not shown: small tags and cut ends)
chain: B18 chain with A33Y, T37V, A39L, A40N, C42A, N73L, G79S, T80L, G82Q
notes: as for B1
B21: SEQ ID NO 43 (designed binder, not shown: small tags and cut ends)
chain: MLPAPKNLVVSRVTEDSARLSWTAPDAAFDSFMIVYYEYTRFGEAIVLTVPGSERSYDLTGLKPGTEYTVPIDGVKGGGRSSPLSAIFTT
notes: as for B1
B22: SEQ ID NO 72 (designed binder, not shown: small tags and cut ends)
chain: MLPAPKNLVVSRVTEDSARLSWTAPDAAFDSFTIGYREWYWYGEAIVLTVPGSERSYDLTGLKPGTEYNVPISGVKGGLDSFPLSAIFTT
notes: as for B1
B23: SEQ ID NO 17 (designed binder, not shown: small tags and cut ends)
chain: B18 chain with A33P, T35L, A39C, A40V, L41Y, C42R, P69H, N73T, T80G, G82W
notes: as for B1
B24: SEQ ID NO 30 (designed binder, not shown: small tags and cut ends)
chain: B18 chain with A33I, T35H, T37V, A39Q, A40Q, C42I, N73T, G79A, T80C, G82W
notes: as for B1
B25: SEQ ID NO 13 (designed binder, not shown: small tags and cut ends)
chain: B18 chain with A33L, T35A, T37P, A39D, A40G, L41F, C42R, N73L, T80G
notes: as for B1
B26: SEQ ID NO 56 (designed binder, not shown: small tags and cut ends)
chain: MLPAPKNLVVSRVTEDSARLSWTAPDAAFDSFSIGYVELVLLGEAIVLTVPGSERSYDLTGLKPGTEYDVLIPGVKGGSLSRPLSAIFTT
notes: as for B1
B27: SEQ ID NO 88 (designed binder, not shown: small tags and cut ends)
chain: B21 chain with M33P, V35K, Y37R, Y39V, T40L, F42C, D73T, G79F, R80G
notes: as for B1
B28: SEQ ID NO 33 (designed binder, not shown: small tags and cut ends)
chain: B22 chain with T33G, G35A, R37V, W39S, S73Y, L79D, D80G, F82G
notes: as for B1
B29: SEQ ID NO 48 (designed binder, not shown: small tags and cut ends)
chain: MLPAPKNLVVSRVTEDSARLSWTAPDAAFDSFLIYYEEGYLEYYYSGEAIVLTVPGSERSYDLTGLKPGTEYYVGIVGVKGGGLSGPLSAISTT
notes: as for B1
B30: SEQ ID NO 40 (designed binder, not shown: small tags and cut ends)
chain: MLPAPKNLVVSRVTEDSARLSWTAPDAAFDSFTIDYWENRCPGEAIVLTVPGSERSYDLTGLKPGTEYCVWISGVKGGYSSWPLSAIFTT
notes: as for B1
B31: SEQ ID NO 47 (designed binder, not shown: small tags and cut ends)
chain: B21 chain with M33G, Y37L, Y39M, T40M, R41V, F42T, T69D, D73L, G79T, S82V
notes: as for B1

target: T1, recombinant biotinylated CD71 extracellular domain (Sino Biologics) with an N-terminal 6His tag (human, UniProt P02786 89-760, biotinylated (site not stated)); experiment: primary solution ELISA screen
T1 construct: extracellular domain; also called hCD71; huCD71 ECD
T1 sequence (P02786 other isoform, or with tags, fused parts or gaps): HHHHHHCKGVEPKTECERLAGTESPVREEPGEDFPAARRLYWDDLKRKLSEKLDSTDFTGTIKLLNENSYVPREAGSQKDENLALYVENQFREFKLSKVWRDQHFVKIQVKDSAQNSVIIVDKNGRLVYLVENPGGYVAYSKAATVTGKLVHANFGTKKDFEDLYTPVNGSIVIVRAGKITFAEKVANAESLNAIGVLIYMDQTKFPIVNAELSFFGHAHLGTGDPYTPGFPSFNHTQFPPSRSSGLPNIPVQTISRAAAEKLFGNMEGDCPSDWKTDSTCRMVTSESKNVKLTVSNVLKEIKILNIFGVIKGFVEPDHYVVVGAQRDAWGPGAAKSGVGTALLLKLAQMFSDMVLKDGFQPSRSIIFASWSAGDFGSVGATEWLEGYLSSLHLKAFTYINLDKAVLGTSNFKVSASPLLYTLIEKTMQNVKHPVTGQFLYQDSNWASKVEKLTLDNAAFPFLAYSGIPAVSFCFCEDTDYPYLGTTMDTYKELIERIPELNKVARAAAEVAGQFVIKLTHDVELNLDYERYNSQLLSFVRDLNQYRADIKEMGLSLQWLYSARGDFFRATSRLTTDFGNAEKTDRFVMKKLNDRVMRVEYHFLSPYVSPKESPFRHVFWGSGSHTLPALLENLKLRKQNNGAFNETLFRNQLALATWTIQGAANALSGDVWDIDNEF

Binder	RLU
B1	1.48e+06 RLU
B2	518000 RLU
B3	1.24e+06 RLU
B4	1.31e+06 RLU
B5	586000 RLU
B6	969000 RLU
B7	1.56e+06 RLU
B8	3.26e+06 RLU
B9	440000 RLU
B10	1.04e+06 RLU
B11	1.12e+06 RLU
B12	739000 RLU
B13	959000 RLU
B14	715000 RLU
B15	521000 RLU
B16	2.95e+06 RLU

Binder	RLU
B17	321000 RLU
B18	956000 RLU
B19	828000 RLU
B20	1.58e+06 RLU
B21	772000 RLU
B22	338000 RLU
B23	221000 RLU
B24	205000 RLU
B25	1.73e+06 RLU
B26	1.92e+06 RLU
B27	515000 RLU
B28	271000 RLU
B29	3.04e+06 RLU
B30	223000 RLU
B31	1.99e+06 RLU

target: T1, recombinant biotinylated CD71 …; experiment: primary solution ELISA screen, signal on hCD71 over HSA

Binder	hCD71:HSA
B1	29
B2	63
B3	25
B4	218
B5	586
B6	70
B7	105
B8	29
B9	45
B10	127
B11	29
B12	71
B13	60
B14	13
B15	14
B16	103

Binder	hCD71:HSA
B17	20
B18	53
B19	79
B20	195
B21	36
B22	38
B23	61
B24	46
B25	70
B26	99
B27	21
B28	132
B29	26
B30	16
B31	98
